Here are results for four molecules from patent US20150147342A1 (published 2015).

Experiment [1] deals with T1, Dimeric fibrinogen-like domain of mouse (Mus musculus) Ang-2 conjugated to human IgG1 (mouse (Mus musculus)).
T1 construct: also called Dimeric Mouse Ang-2FD; Mouse Ang-2FD-hFc
Put plainly: SPR, hIgG1 antibody captured, room temp. As to the method: (§1) Antibody was captured on a goat anti-mouse IgG polyclonal antibody surface, a goat anti-human κ polyclonal antibody (Southern Biotech, Birmingham, Ala.) surface or a goat anti-human IgG polyclonal antibody (Jackson Immuno Research Lab, West Grove, Pa.) surface created through direct amine coupling to a BIACORE™ CM5 sensor chip to form a captured antibody surface. […] Antigen-antibody binding and dissociation were monitored in real time at room temperature. Kinetic analysis was performed to calculate KD and half-life of antigen/antibody complex dissociation.
(§2) The above experiment was repeated using selected purified anti-Ang-2 antibodies cloned onto human IgG1.
(SPR reads the build-up and loss of mass on a sensor chip optically.)

In experiment [2] the target is T1, Dimeric fibrinogen-like domain of mouse …. In words: SPR, antibody captured on anti-human kappa, 25 C. As to the method:
(§3) Additional binding experiments were conducted using selected anti-Ang-2 antibodies at two different temperatures to further assess cross-species affinity. Each selected antibody or control construct was captured at a flow rate of 40 μL/min for 1 minute on a goat anti-human kappa polyclonal antibody surface created through direct chemical coupling to a BIACORE™ chip to form a captured antibody surface.

For experiment [3] the target is unchanged. Put plainly: SPR, antibody captured on anti-human kappa, 37 C. As to the method:
as §3

The target of a further experiment is T2, Human Ang-2FD-hFc (human).
T2 construct: Order of the pieces follows the name (Ang-2FD, then hFc); also called Dimeric Human Ang-2FD; human Ang-2FD protein conjugated to human IgG
In words: ELISA, 16.67 nM antibody + 2 nM human Ang-2FD-hFc, on coated hTie-2-mFc (competitor). The method, then: (§4) Tie-2 is a natural receptor for Ang-2. Anti-Ang-2 antibodies were tested for their ability to block Ang-2 binding to human Tie-2 (hTie-2). hTie-2-mFc (a chimeric construct consisting of human Tie-2 conjugated to mouse IgG; SEQ ID NO:525) was coated onto 96-well plates at a concentration of 2 μg/ml and incubated overnight followed by washing four times in wash buffer (PBS with 0.05% Tween-20). The plate was then blocked with PBS (Irvine Scientific, Santa Ana, Calif.) containing 0.5% BSA (Sigma-Aldrich Corp., St. Louis, Mo.) for one hour at room temperature. In a separate plate, purified anti-Ang-2 antibodies, at a starting concentration of 50 nM, were serially diluted by a factor of three across the plate. […] The antibody/Ang-2FD-Fc mixture was then added to the plate containing hTie-2-mFc and incubated for one hour at room temperature.
On the technique in general: An ELISA detects its analyte on a solid surface through an enzyme-linked reagent.

A further experiment concerns the target T3, Monkey Ang-2FD-hFc (monkey (Macca fascicularis)).
T3 construct: Order of the pieces follows the name; also called Dimeric Monkey Ang-2FD
Put plainly: ELISA, 16.67 nM antibody + 2 nM monkey Ang-2FD-hFc, on coated hTie-2-mFc (competitor). As to the method:
as §4

In a further experiment the target is T4, Mouse Ang-2FD-hFc (mouse (Mus musculus)).
T4 construct: Order of the pieces follows the name; also called Dimeric Mouse Ang-2FD
Put plainly: ELISA, 16.67 nM antibody + 8 nM mouse Ang-2FD-hFc, on coated hTie-2-mFc (competitor). The method, then: as §4

In experiment [4] the target is T5, Dimeric fibrinogen-like domain of human Ang-2 conjugated to human IgG1 (human).
T5 construct: also called Dimeric Human Ang-2FD; Human Ang-2FD-hFc
In words: SPR, hIgG1 antibody captured, room temp. The method, then: as §1, §2

The target in experiment [5] is T6, Dimeric fibrinogen-like domain of monkey (Macca fascicularis) Ang-2 conjugated to human IgG1 (monkey (Macca fascicularis)).
T6 construct: also called Dimeric Monkey Ang-2FD; Monkey Ang-2FD-hFc
Put plainly: SPR, hIgG1 antibody captured, room temp. As to the method:
as §1, §2

Experiment [6] addresses T6, Dimeric fibrinogen-like domain of …. In words: SPR, antibody captured on anti-human kappa, 25 C. As to the method:
as §3

Experiment [7] shares this target. In words: SPR, antibody captured on anti-human kappa, 37 C. As to the method:
as §3

B1: H1H685P (antibody, V domains shown)
VH: EVQLVESGGGLVQPGGSLRLSCAASGFTFSSYDIHWVRQATGKGLEWVSAIGPAGDTYYPGSVKGRFTISRENAKNSLYLQMNSLRAGDTAVYYCARGLITFGGLIAPFDYWGQGTLVTVSS
VL: EIVLTQSPGTLSLSPGERATLSCRASQSVSSTYLAWYQQKPGQAPRLLIYGASSRATGIPDRFSGSGSGTDFTLTISRLEPEDFAVYYCQHYDNSQTFGQGTKVEIK
notes: also called mAb1
For orientation: Kd means the equilibrium constant for the complex coming apart. On to B1, for which the dissociation constant (Kd) in experiment [1] turned out to be 0.148 nM; in [2], 0.0651 nM; in [3], 0.0939 nM. Besides, the results for the “T1/2” value in experiment [1], in experiment [2] and in experiment [3] were 2.14 h, 3.47 h and 1.07 h, respectively.

B2: H1H724N (antibody, V domains shown)
VH: QVQLVESGGGVVQPGRSLRLSCAASGFTLSNYGMHWVRQAPGKGLEWVAVIWHDGSNTYYADSVKGRFTISRDNSKNTLYLQMNSLRAEDTAVYYCTREGLDFWSGYYPNWFDPWGQGTLVTVSS
VL: DIQMTQSPSSLSASVGDRVTITCRASQGIRNDLGWYQQKPGKAPKRLIYAASNLQGGVPSRFSGSGSGTEFTLTISSLQPEDFAAYYCLQHNIYPLTFGGGTKVEIK
For B2, the “Percent Blocking of Ang-2FD Binding to Tie-2” value was 96.6% with Human Ang-2FD-hFc, 96.6% in the experiment with Monkey Ang-2FD-hFc and 97.1% in the experiment with Mouse Ang-2FD-hFc.

B3: H1H744N (antibody, V domains shown)
VH: QVQLVQSGVEVKKPGASVKVSCKTSGYTFSNNGFSWVRQAPGQGLEWLGWISGYNGNTNYAQKFQGRVTMTTDTSTSTAYMELRTLRSDDTAVYYCARDQDYSNFHWLDPWGQGTLVTVAS
VL: DIQMTQSPSSVSASVGDRVIITCRASQGLSSWLAWYQQKPGTAPKLLIHSASSLQTGVPSRFSGSGSGTEFALTINSLQPEDFGTYYCQQANSFPLTFGGGTRVEIK
For the molecule B3, the Kd is 0.114 nM in experiment [4]; 0.346 nM in [5]; 0.385 nM in [2]; 0.244 nM in experiment [6]; 0.215 nM in [3]; 0.32 nM in [7]. Moreover, the “T1/2” value in experiment [4] came to 2.12 h; in experiment [1] it was 1.92 h; in experiment [5], 2.73 h; in [2] it was 0.55 h; in experiment [6], 0.4 h; in experiment [3] it was 0.433 h. In addition, the “T1/2” value in [7] worked out at 0.183 h.

B4: H1H744N (antibody, V domains shown)
VH: B3 VH
VL: B3 VL
Consider B4, for which the “Percent Blocking of Ang-2FD Binding to Tie-2” value with Human Ang-2FD-hFc was determined as 97.9%; in the experiment with Monkey Ang-2FD-hFc, 96.2%; with Mouse Ang-2FD-hFc it was 97.6%.
